Experimental data as given in the supplement of paper PMC9170038.

System: MS2 coat protein
Experiment: apparent KD of MS2 coat protein; designed switch direction (-1 OFF switch, 1 ON switch): -1; higher = weaker reporter binding
Method in brief: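 Transcription of designed RNA switches on Illumina chips was done by stalled E. coli RNA polymerase. SNAP-549-labelled MS2 coat protein was then titrated in doubling steps from 0.7 or 1.5 nM to 3 µM, with steps of 0.8–1.5 h at the lowest and 10–20 min at the highest concentration. The per-design median over clusters of curve-fitted normalised fluorescence is reported as apparent KD.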

[1] = Eterna round: R95, input ligand: microRNA oligo, concentration not stated
[2] = Eterna round: R95, input ligand: FMN 200 uM
[3] = input ligand: microRNA oligo, concentration not stated

Sequence	apparent KD of MS2 coat protein [1] [nM]	apparent KD of MS2 coat protein (input ligand: FMN 200 uM) [nM]	apparent KD of MS2 coat protein (input ligand: none) [nM]	other results
CCCGUGUUAGGAUAUACGGCACACCUGCCAGCAGGUGUAUAGUAGAAGGAACAUGAGGAUCACCCAUGUAUAGC [Rizausma] (puzzle: Exclusion 4)	34.6	–	–	–
CCCUCAAGCGAGGAUAUAAAUGCGCAUUCGCGGUUAGAAGGCGCUACAUGAGGAUCACCCAUGUAAUUAAAUGG [jl-ex6-4.51 ViennaUCT mod] (Eterna round: R97, puzzle: Exclusion 6)	–	128	52.6	–
CCCUCACAUGAGGAUCACCCAUGUCAGGAUAUCUCAGUACGUCCACACGGACGCACCAAGAGAAGGGACAAAGC [Veara] (Eterna round: R97, puzzle: Exclusion 1)	–	32.2	20	–
CCCUCACAUGAGGAUCACCCAUGUCAGGAUAUGCGCGGCCAAAAGGGCUGCUAAGGCAGCAGAAGGGACGUGAA [Eninored] (puzzle: Exclusion 1)	14.4	–	–	–
CCCUCACAUGAGGAUCACCCAUGUCAGGAUAUUCGAGGCGCAAAUGCGCCAAAUGCAGGAAGAAGGGACGUGCC [Isqubemaor] (puzzle: Exclusion 1)	14	–	–	–
CCGAAUAAGCAGGAUAUCGUAUCGGAAACGAUACGAGAAGGGUUAACAUGAGGAUCACCCAUGUUCCUUAACGG [Fiskers Ex 6 - 17] (puzzle: Exclusion 6)	17.4	–	–	–
CCGACCCGAGGAUAUUGUACUGCUGACAUGAGGAUCACCCAUGUAUGUUAACUCGGCCGACGAGAAGGCGGCGACA [BotMod 3 - Jieux - Exclusion 5] (Eterna round: R97, puzzle: Exclusion 5)	–	18.4	22.1	–
CCGAGGAAGCGGUCCUAUGACAUGAGGAUCACCCAUGUACCUCGCUACGAGCUUUUUGCUCGUCUUAUAAUUCUCGG [Mat - Sensor v3 - turn-off var 1 - JL Mod - D28] (puzzle: Sensor v3, turn-off variant 1)	65.5	–	–	apparent KD of MS2 coat protein [2]: 24.2 nM
CCGAUAAUGUAGGAUAUCGUAUCGGAGACGAUACGAGAAGGACAAACAUGAGGAUCACCCAUGUUCCUUAACGG [Mat - Exclusion 6 - Eli Mod - D74] (puzzle: Exclusion 6)	13.5	–	–	–
CCGCGACAUGAGGAUCACCCAUGUUAGGAUAUGUGCGCCAACCAAGGAAUUGGUAGGUACAGAAGGAGCUGGGU [Eternabot (L2) Solution 97] (Eterna round: R97, puzzle: Exclusion 1)	–	149	56.3	–
CCGCGUACAGGAUAUCCAUCUGGAUCAGACAAGAUCCUGAUGGAGAAGGGACAUGAGGAUCACCCAUGUUGCGG [Mat - Exclusion 4 - Eli Mod - D54] (Eterna round: R97, puzzle: Exclusion 4)	–	19	19.3	–
CCGCUACAUGAGGAUCACCCAUGUCAGGAUAUCGUACGUUCGUCGAAAGACGAUCGUACGAGAAGGGUGUGCGG [Eli x1 4.37] (Eterna round: R97, puzzle: Exclusion 1)	–	169	155	–
CCGCUCCGUGUAGGAUAUCGGCGUGCCCUGCGCCGAGAAGGACAUGAGGAUCACCCAUGUAUGUUAUUAUCACGCGUGGCGCAC [Design 75] (Eterna round: R96, puzzle: Exclusion NG 1)	–	18.7	19.9	apparent KD of MS2 coat protein [3]: 15 nM
CCGCUGUCAGGAUAUCGUGCAUACAACGAAAGUUCUAUGUGCGAGAAGGGACAUGAGGAUCACCCAUGUUUGCG [Omei Ex4 A20] (Eterna round: R97, puzzle: Exclusion 4)	–	41.3	28.2	–
CCGGAAAGGAAGGAUAUGCUAGACGAGAGUCUAGCAGAAGGUCCUACAUGAGGAUCACCCAUGUGGUCCUCCGG [Mat - Exclusion 6 - Eli Mod - D34] (Eterna round: R97, puzzle: Exclusion 6)	–	252	1270	–
CCGGAAAUGGAGGAUAUAGGAGUCGAUAGACACCUAGAAGGUCAUACAUGAGGAUCACCCAUGUGUCCUACCGG [Fiskers Ex 6 - 79] (puzzle: Exclusion 6)	12.9	–	–	–
CCGGAACAUGAGGAUCACCCAUGUCAGGAUAUCCCUAAAUCGUCGAUAGACGAUAAAAGGAGAAGGGACACCGG [Mat - Exclusion 1 - Eli Mod - D26] (Eterna round: R97, puzzle: Exclusion 1)	–	19.3	16.3	–
CCGGCUUAGGAGGAUAUAGGAGUCGAUAGACACCUAGAAGGCCUAACAUGAGGAUCACCCAUGUGUCCUACCGG [Fiskers Ex 6 - 99] (puzzle: Exclusion 6)	16.3	–	–	–
CCGGUAAAGGAGGAUAUAGGAGUCGAUAGACACCUAGAAGGCCUGACAUGAGGAUCACCCAUGUGUCCUUCCGG [Fiskers Ex 6 - 94] (puzzle: Exclusion 6)	16.8	–	–	–
CCGUUCCGUGUAGGAUAUUGGCCUUCCUCGGGCCGAGAAGGACAUGAGGAUCACCCAUGUAUGCUAUUAUCGCGCGUGGCGCCC [Design 98] (Eterna round: R96, puzzle: Exclusion NG 1)	–	129	39.8	apparent KD of MS2 coat protein [3]: 32.4 nM
CCUAGGUUAGGAUAUCUCGAUGUGGCAAAGGGUCCAUAUCGGGAGAAGGAACAUGAGGAUCACCCAUGUGGAGC [Eternabot (Original) Solution 42] (Eterna round: R97, puzzle: Exclusion 4)	–	159	57	–
CCUCAACAGUAGGAUAUCAUAUAACUAUUGUGAUGAGAAGGACUGACAUGAGGAUCACCCAUGUUAACGUGAUA [Exclusion 6 - 5:b] (puzzle: Exclusion 6)	17.3	–	–	–
CCUCAACAGUAGGAUAUCAUCAAACUAUUGUGAUGAGAAGGACUGACAUGAGGAUCACCCAUGUUAACGUGAUA [Exclusion 6 - 6:a] (puzzle: Exclusion 6)	38.4	–	–	apparent KD of MS2 coat protein [2]: 38.9 nM; apparent KD of MS2 coat protein (Eterna round: R95, input ligand: none): 44.9 nM
CCUCAACAUGAGGAUCACCCAUGUAAGGAUAUGUUGCAGAGCCUCGAGGUACCCGUCAACAGAAGGUAUAUAGA [Eternabot (L1) Solution 16] (Eterna round: R97, puzzle: Exclusion 1)	–	45.1	30.7	–
CCUCACCGAGGAUAUACAUGAGGAUCACCCAUGUGAUCCUAAGGCUGAUCAAGCCUAUGUAGAAGGCGCAAAUC [salish99_ex3_r4_005] (Eterna round: R97, puzzle: Exclusion 3)	–	1010	765	–
CCUCAGUAAGGAUAUCAGCUUAGGAGGUUGGUAAUGAGAGCUGAGAAGGUACAUGAGGAUCACCCAUGUUAGUU [JL Zatite mod 7] (puzzle: Exclusion 4)	30.2	–	–	–
CCUCAGUCACAGGAUAUGCUCAUCUAAUGAUGAGCAGAAGGGUGAACAUGAGGAUCACCCAUGUUUACGGUGGU [Omei Ex6 E8] (Eterna round: R97, puzzle: Exclusion 6)	–	122	328	–
CCUCCACAGUAGGAUAUCAUCAAACUAUUGUGAUGAGAAGGACUGACAUGAGGAUCACCCAUGUUAACGUGAUG [Mod of Brourd 7 - Jieux - Exclusion 6] (Eterna round: R97, puzzle: Exclusion 6)	–	25.3	22.9	–
